In patent publication US20060281702A1, “Combinatorial selection of phosphorothioate aptamers for RNases” (priority 2005, published 2006):
Entries after “also recorded” stand apart in the source; their conditions may differ. Like-named read-outs stand apart in the source and are kept apart here.

Tests used:
[1] = test system: HIV-1 SF162 (R5) in U373-MAGI-CCR5 cells; experiment: HIV infection of ODN-transfected U373-MAGI-CCR5 cells; assay type: cell-based
Source text: Viruses and cells. HIV-1 SF162-R5 is a primary isolate that uses CCR5 as a coreceptor (R5), and was obtained from the NIH AIDS Research and Reference Reagent Program. U373-MAGI-CCR5 cells have modifications of the U373 astrocytoma adherent cells that allow use for HIV transfection and infection studies. U373-MAGI-CCR5 cells express β-gal under the control of HIV LTR, which is trans-activated by the HIV Tat protein in relation to the level of virus replication. In addition, these cells express CD4 and the human chemokine receptor CCR5 on its surface, which allow infection by primary HIV strains. U373 cells are propagated in 90% DMEM, 10% fetal bovine serum, 0.2 mg/ml G418, 0.1 mg/ml hydromycin B, and 1.0 μg/ml puromycin. For transfection and infection studies, U373 cells were maintained in 90% DMEM, 10% fetal bovine serum, and 1% penicillin/streptomycin. Thioaptamer RNase H-specific R12-2, control AP-1-specific or scrambled ODNs were transfected into the cells 24 hr prior to infection using Oligofectamine liposomes, according to the manufacturer's instructions (Invitrogen).
Infection of ODN-transfected U373-MAGI-CCR5 cells. Transfected cells and control cells were infected with HIV at m.o.i. of 0.003 (which consistently gives high levels of viral production) for 2 hr. Equal volumes of medium were then added and infection was continued for 48 hr. HIV replication was quantitated in cell lysates by measurement of β-gal activity, determined by luminometry using the β-Glo kit (Promega), according to the manufacturer's guidelines. β-gal activity is expressed as relative light units (RLU). To determine HIV TCID50 in U373-MAGI-CCR5 cells, serial dilutions (10×) of SF162-R5 virus supernatant were innoculated onto a 24-well plate containing 3×10^4 U373 cells for 2 hr, then equal volumes of complete medium were added, and infection was continued for 48 hr. Cells then were lysed and assayed for HIV-directed β-gal expression, and TCID50 (50% tissue culture infective dose) was calculated from quadruplicates. The p24 antigen capture assay (Beckman-Coulter) was used to determine virus production in some studies, measured by p24 antigen concentration in the culture supernatants harvested at day 7 post-infection.

[2] = biological target: T1, isolated RNase H domain (Human immunodeficiency virus type 1 group M subtype B, UniProt P04585); experiment: RNase H activity of the isolated RNase H domain; assay type: biochemical, HIV
T1 construct: encodes the 15 kDa RNase H domain of HIV-RT; made in house; host or cells: E. coli

[3] = biological target: T2, RNase H activity of intact HIV-RT (Human immunodeficiency virus type 1 group M subtype B, UniProt P04585); experiment: HIV-RT RNase H activity assay (3H-labeled DNA:RNA hybrid); assay type: biochemical; conditions: intact HIV-RT 0.35 μM, R12-2 0.5-2 μM, FIG. 5
T2 construct: The 66 kDa domain, p66, contains an RNase H domain in addition to the DNA polymerase domain; purchased Amersham Bioscience (Piscataway, N.J.)
Description: HIV-RT RNase H activity assay. A DNA:RNA heteroduplex containing radiolabeled RNA was prepared as a substrate for the RNase H. A tritium-labeled RNA molecule, the stem loop 2 of the HIV psi-RNA (25), was made by in-vitro transcription using T7 RNA polymerase with a mixture of ATP, CTP, GTP and ^3H-UTP. Transcribed RNA was purified by centrifugation using Microcon YM-3 filters, to remove NTPs and other short RNA sequences. The purified RNA was annealed with the complementary DNA strand to give the DNA:RNA hybrid where the RNA strand is ^3H-labeled. HIV-RT (0.35 μM) was incubated with R12-2 thioaptamer (0.5-2 μM) in a buffer containing Tris-HCl (50 mM, pH 8.0), MgCl2 (6 mM), DTT (10 mM) and KCl (80 mM) for 30 min at 37° C. To this mixture, labeled DNA-RNA hybrid (40 000 cpm) was added to a final volume of 50 μl and incubated at 37° C. for 20 min. The reaction was quenched by addition of 150 μl of 10% trichloroacetic acid and the mixture was placed on ice for 10 min. The reaction mixture was filtered, washed and the amount of radioactivity in the filtrate was measured using a scintillation counter (Beckman Coulter, CA). The amount of radioactivity in the filtrate is regarded as proportional to RNase H activity.
The ability of the thioaptamer R12-2 to inhibit RNase H activity was tested using a radio-labeled substrate of a DNA:RNA hybrid duplex, as described in Methods. […]

[4] = biological target: T3, HIV-RT (Human immunodeficiency virus type 1 group M subtype B, UniProt P04585); experiment: EMSA binding to intact HIV-RT
T3 construct: The 66 kDa domain, p66, contains an RNase H domain in addition to the DNA polymerase domain; purchased Amersham Bioscience (Piscataway, N.J.)
Description: Electrophoresis Mobility Shift Assay (EMSA). One of the selected thioaptamers (R12-2) was used to test the specific binding to RNase H. R12-2 was labeled with fluorescein at the 5′-end by enzymatic synthesis and was incubated with increasing concentrations of HIV-RT RNase H in Tris-HCl buffer (50 mM. pH 8), MgCl2 (10 mM) and DTT (40 mM) at 37° C. for 30 minutes. The reaction mixture was loaded on an 8% native polyacrylamide gel, electrophoresed and analyzed on the Flor Chem 8800 imager (Alpha Innotech, CA). Similar experiment was performed with the E.coli RNase H, to test whether R12-2 binds to the RNase H from E.coli.
Next, the binding of R12-2 to the intact HIV-RT by EMSA methods was also determined. In FIG. 4a, the protein in the band was detected by staining the gel with Coomassie blue.

[5] = biological target: T4, isolated domain of RNase H HIV-RT (Human immunodeficiency virus type 1 group M subtype B, UniProt P04585); experiment: NMR titration of R12-2 with isolated RNase H domain; assay type: binding, HIV-1; conditions: addition of RNase H to R12-2
T4 construct: encodes the 15 kDa RNase H domain of HIV-RT; made in house; host or cells: E. coli
Description: NMR Spectroscopy. Uniformly ^15N labeled RNase H and chemically synthesized R12-2 were used to monitor the binding of the R12-2 thioaptamer to the isolated domain of RNase H. The oligonucleotide concentrations were calculated from the absorbance value and using the molar absorption coefficients calculated using the nearest neighbor parameters. ^15N-HSQC spectra (26) of the isolated RNase H in the presence of 25 mM MgCl2 were acquired on Varian UnityPlus 750 MHz instrument equipped with pulse field gradients and using triple resonance probes. One dimensional proton NMR and 2D NOESY spectra (250 ms mixing time) of R12-2 thioaptamer in 95% H2O/5% D2O were collected at 750 MHz. The signals from the […] imino protons of R12-2, that are very sensitive to changes in the DNA conformation, were monitored during the titration of RNase H to the R12-2.

B1: R12-2: 62-mer duplex DNA thioaptamer, monothiophosphate 5′ to dA, selected against RNase H domain of HIV-RT; probably SEQ ID NOS. 1 and 2 (nucleic acid)
chain 1: AATGCTTCCACGAGCCTTTCGGGGTTGGTGTACAGTGGATGGCTGCGAGGCGGTAGTCTATTC
chain 2: GAATAGACTACCGCCTCGCAGCCATCCACTGTACACCAACCCCGAAAGGCTCGTGGAAGCAT
modifications: DNA, backbone and methylation of C not given here; duplex DNA thioaptamer, monothiophosphate 5' to dA
notes: 62-mer duplex DNA thioaptamer, monothiophosphate 5′ to dA, selected against RNase H domain of HIV-RT; 1 and 2
B1 was tested. Which reduction of infection ([1]; Oligofectamine transfection 24 h prior to infection, HIV-SF162 m.o.i. 0.003, compared with untransfected or OF-only cells, FIG. 6) did it give?
The reduction of infection was “greater than 75%”.

And the “inhibition of the virus at high m.o.i.” value ([1]; R12-2 0.05 μg/ml, inocula m.o.i. 0.05 to 0.0005, FIG. 8)?
Its value is “significant inhibition”.

What about the “reduction of virus production” value ([1]; high m.o.i.) of the same molecule?
The value was “more than 50%”.

And the “suppression of virus compared with AZT” value ([1]; m.o.i.≦0.005, AZT 10 μM, FIG. 8)?
The value was “comparable to that seen with AZT”.

What about the IC50 ([1]; transfected 24 hrs prior to infection with HIV SF162, 48 hrs, doses 0.03 to 2.0 μg/ml, FIG. 7, read-out: IC50 (inhibition of HIV infection)) of the same molecule?
Its IC50 is less than 100 nM.

What about the “effect on HIV infection / viral production” value ([1]; transfected U373-MAGI-CCR5 cells, FIG. 6) of the same molecule?
The value was “inhibits; also recorded: markedly reduces”.

What about the “effect against the isolated RNase H domain” value [2] of the same molecule?
The value was “not effective”.

What about the “inhibition of RNase H activity” value [3] of the same molecule?
Its value is “inhibit; also recorded: shows inhibition”.

And the “binding to intact HIV-RT (EMSA)” value ([4]; FIG. 4A)?
Its value is “is binding”.

What about the Kd ([4]; intact HIV-RT, EMSA bound band intensity, Hill Plot, FIG. 4B, read-out: dissociation constant Kd) of the same molecule?
Its Kd is 70 nM.

What about the Kd ([4]; specific binding to HIV-RT, read-out: binding constant) of the same molecule?
Its Kd is 70 nM.

And the “binding to isolated RNase H domain (NMR, imino proton signal broadening)” value [5]?
The value was “binding”.
